Test results published in article PMC8492941.

Molecular target: ABD-fused VP1 (ABD-VP1) protein vaccine (not stated | Coxsackievirus B3) (UniProt P03313)
Experiment: ELISA; sandwich ELISA on serum of mice injected subcutaneously with ABD-VP1 or VP1: plates pre-coated with anti-VP1 antibody, detection with anti-albumin antibody and HRP-labeled secondary antibody, absorbance at 450 nm; the complex formed in vivo

mouse serum albumin (MSA) (from UniProt P07724 25-608) (natural protein)
OD450: 0.7 OD450
